Broadly, the IC50 is the concentration needed to halve the response being measured.

Results on 9 substances are retold here after US20240132578A1.

Common to all, as to assay: cell-based or functional assay
In test [1] the target is HIV-1 MGRM-AE-005 Env (pseudovirus) (HIV-1).
In test [2] the target is HIV-1 Env of isolate NL43, clade B (HIV-1).
Test [3] deals with HIV-1 Env of pseudovirus MGRM-F1-015 (clade F) (HIV-1).
Test [4] addresses HIV-1 Env of isolate MGRM-D-008 (clade D pseudovirus) (HIV-1).
The target of test [5] is HIV-1 envelope glycoprotein (Env) of isolate MGRM-C-020 (HIV-1).
Test [6] has as its target HIV-1 Env of isolate PVO.4 (Acute), clade B (HIV-1).
The target of test [7] is HIV-1 Env of isolate MGRM-Chronic-B-004, clade B (HIV-1).
The target in test [8] is HIV-1 Env of isolate 92UG037 (clade A pseudovirus) (HIV-1).
Test [9] has as its target HIV-1 envelope glycoprotein (Env) of isolate MGRM-C-014 (HIV-1).
Test [10] deals with HIV-1 envelope glycoprotein (Env) of isolate LAVIC_18 (HIV-1).
The target in test [11] is HIV-1 Env of isolate TRO.11 (Acute), clade B (HIV-1).
Test [12] deals with HIV-1 Env of isolate MGRM-A-009 (clade A pseudovirus) (HIV-1).
In test [13] the target is HIV-1 MGRM-AG-012 Env (pseudovirus) (HIV-1).
Test [14] concerns the target HIV-1 Env of isolate MGRM-A-013 (clade A pseudovirus) (HIV-1).
Test [15] deals with HIV-1 Env of isolate MGRM-D-020 (pseudovirus) (HIV-1).
The target in test [16] is HIV-1 Env of pseudovirus isolate MGRM-C-006 (clade C) (HIV-1).
In test [17] the target is HIV-1 Env of isolate 92UG001 (pseudovirus) (HIV-1).
Test [18] concerns the target HIV-1 Env of isolate MGRM-A-013 (subtype A) (HIV-1).
For test [19], the target named is HIV-1 JR-CSF Env N396A (HIV-1 (isolate JR-CSF)) (UniProt P20871).
The target in test [20] is HIV-1 JR-CSF Env T303A (HIV-1 (isolate JR-CSF, clade B)) (UniProt P20871).
For test [21], the target named is HIV-1 Env of pseudovirus isolate MGRM-C-027 (clade C) (HIV-1).
Test [22] concerns the target HIV-1 Env of isolate MGRM-F1-012 (HIV-1).
Test [23] concerns the target HIV-1 JR-CSF Env F468A (HIV-1 (isolate JR-CSF)) (UniProt P20871).
Test [24] deals with HIV-1 JR-CSF Env W395A (HIV-1 (isolate JR-CSF)) (UniProt P20871).
Test [25] addresses HIV-1 92UG024 envelope protein (Env) on pseudovirus (HIV-1).
Test [26] has as its target HIV-1 MGRM-C-027 Env (HIV-1).

1443_C16 (PG16) (TCN-116) (antibody), sequence (VH): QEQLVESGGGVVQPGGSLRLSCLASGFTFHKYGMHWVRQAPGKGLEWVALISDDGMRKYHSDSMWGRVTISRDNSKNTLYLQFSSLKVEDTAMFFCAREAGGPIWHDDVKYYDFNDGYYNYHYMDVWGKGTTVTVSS
1443_C16 (PG16) (TCN-116) (antibody), sequence (VL): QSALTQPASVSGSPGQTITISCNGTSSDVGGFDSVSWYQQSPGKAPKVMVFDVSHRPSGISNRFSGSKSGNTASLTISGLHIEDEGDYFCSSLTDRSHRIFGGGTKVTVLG

2G12 (antibody): the IC50 (µg/ml), pseudovirus neutralization was over 50 µg/mL in [1]; 0.49 µg/mL in test [2]; 18.6 µg/mL in [5]; 0.8 µg/mL in [6]; 8.65 µg/mL in [7]; 45.2 µg/mL in [8]. Besides, the IC50 (µg/ml), pseudovirus neutralization in [9] is over 50 µg/mL; in test [10], over 50 µg/mL; in [11], 0.29 µg/mL; in test [12] it was 7.47 µg/mL; in test [13], 1.94 µg/mL; in [14], over 50 µg/mL. This substance came in with an IC50 in [3] of over 50 µg/mL. Also, the IC50, pseudovirus neutralization in test [4] is over 50 µg/mL.

As for b12 (antibody), the IC50 (µg/ml), pseudovirus neutralization in test [1] is 0.63 µg/mL; in test [2] it was 0.17 µg/mL; in test [5], over 50 µg/mL; in test [6], over 50 µg/mL; in [7], 0.26 µg/mL; in test [8], over 50 µg/mL. Moreover, the IC50 (µg/ml), pseudovirus neutralization in test [9] was over 50 µg/mL; in [10], over 50 µg/mL; in [11], over 50 µg/mL; in test [12], 4.34 µg/mL; in [13], 10.4 µg/mL; in test [14], 7.04 µg/mL. Moreover, the IC50 in test [3] is over 50 µg/mL. In test [4], this substance gave an IC50, pseudovirus neutralization of over 50 µg/mL.

As to 1495_C14 (PGC14) (antibody), the IC50 (µg/ml), pseudovirus neutralization in [1] was over 50 µg/mL; in test [2], 40 µg/mL; in [5], over 50 µg/mL; in [6], over 50 µg/mL; in test [7], over 50 µg/mL; in [8], over 50 µg/mL. Further, the IC50 (µg/ml), pseudovirus neutralization in test [9], in test [10], in test [11], in [12], in test [13] and in test [14] was over 50 µg/mL each time. In [3], this substance displayed an IC50 of over 50 µg/mL. In test [4], this substance showed an IC50, pseudovirus neutralization of over 50 µg/mL.

Regarding 5136_H01 (PGT-131) (antibody), the IC50 (µg/mL), pseudovirus neutralization in test [15], in test [17] and in [22] was over 50 µg/mL in each case. The IC50, pseudovirus neutralization in [16] was 0.611 µg/mL; in [18], over 50 µg/mL; in test [21] it was 0.065 µg/mL. For the same substance, the Fold IC50 increase relative to wild-type (pseudovirus neutralization) in [19] came out at 0.9 fold; in [23] it was 1.6 fold; in test [24], 0.5 fold. The substance also registered a Fold IC50 increase relative to wild-type in test [20] of over 170 fold.

As to 4E10 (antibody), the IC50 (µg/ml), pseudovirus neutralization in test [1] came out at 0.47 µg/mL; in test [2] it was 4.67 µg/mL; in test [5] it was 2.8 µg/mL; in [6] it was 18.3 µg/mL; in test [7], 3.7 µg/mL; in test [8] it was 8.84 µg/mL. For the same substance, the IC50 (µg/ml), pseudovirus neutralization in test [9] is 2.48 µg/mL; in test [10] it was over 50 µg/mL; in test [11] it was 1.39 µg/mL; in test [12], 12 µg/mL; in test [13] it was 0.86 µg/mL; in test [14] it was 1.46 µg/mL. The substance also returned a 50% inhibitory concentration (IC50) in test [3] of 0.53 µg/mL. Besides, the IC50, pseudovirus neutralization in test [4] was determined as 42.9 µg/mL.

Turning to 1443_C16 (PG16) (TCN-116) (antibody), the IC50 (µg/ml), pseudovirus neutralization is 0.02 µg/mL in [1]; 0.02 µg/mL in test [2]; over 50 µg/mL in test [5]; 5.43 µg/mL in test [6]; 0.01 µg/mL in [7]; 0.01 µg/mL in test [8]. In addition, the IC50 (µg/ml), pseudovirus neutralization in test [9] was over 50 µg/mL; in test [10] it was 0.02 µg/mL; in test [11], 0.22 µg/mL; in test [12] it was 0.01 µg/mL; in [13], 25.1 µg/mL; in test [14] it was 0.09 µg/mL. Moreover, in [3], the IC50 is over 50 µg/mL. In test [4], this substance displayed an IC50, pseudovirus neutralization of over 50 µg/mL.

5114_A19 (PGT-128) (antibody): the IC50 (µg/mL), pseudovirus neutralization was 0.011 µg/mL in test [15], over 50 µg/mL in test [17] and 0.007 µg/mL in test [22]. For the same substance, the IC50, pseudovirus neutralization in test [16] came to 0.014 µg/mL; in test [18], 0.008 µg/mL; in test [21], 0.081 µg/mL. Besides, the Fold IC50 increase relative to wild-type (pseudovirus neutralization) in test [19] stood at 0.9 fold; in test [23] it was 0.5 fold; in test [24], 0.8 fold. This substance also gave a Fold IC50 increase relative to wild-type in test [20] of over 500 fold.

With 2F5 (antibody), the IC50 (µg/ml), pseudovirus neutralization in test [1] was 0.14 µg/mL; in test [2] it was 2.02 µg/mL; in test [5] it was over 50 µg/mL; in [6], over 50 µg/mL; in test [7], 2.41 µg/mL; in test [8] it was 3.24 µg/mL. Also, the IC50 (µg/ml), pseudovirus neutralization is over 50 µg/mL in test [9]; over 50 µg/mL in test [10]; over 50 µg/mL in test [11]; 9.4 µg/mL in test [12]; 0.33 µg/mL in test [13]; 0.66 µg/mL in [14]. For the same substance, in test [3], the half-maximal inhibitory concentration (IC50) turned out to be 0.1 µg/mL. This substance showed an IC50, pseudovirus neutralization in [4] of over 50 µg/mL.

With 5147_N06 (PGT-130) (antibody), the IC50 (µg/mL), pseudovirus neutralization in test [15] is 24.7 µg/mL; in test [17], over 50 µg/mL; in test [22] it was over 50 µg/mL. Moreover, the IC50, pseudovirus neutralization in [16] was 0.095 µg/mL; in test [18], over 50 µg/mL; in test [26] it was 0.0052 µg/mL; in test [21] it was 0.008 µg/mL. For the same substance, the IC50 (ug/mL), pseudovirus neutralization in [25] is over 10 µg/mL. The Fold IC50 increase relative to wild-type (pseudovirus neutralization) was 1 fold in test [19], 0.4 fold in [23] and 0.6 fold in test [24]. For the same substance, the Fold IC50 increase relative to wild-type in [20] was over 250 fold.
